Assay [1] deals with T1, human CD40 extracellular domain (recombinant) (human, UniProt P25942 21-193).
T1 construct: Extracellular domain expressed in 293F cells; also called hCD40; CD40-His; not shown: tag (His, Avi-His, mouse Fc or human Fc)
Briefly: affinity assay not described (data not shown).

Another assay has as its target human CD40 on cells (human, UniProt P25942 21-277). Briefly: cell-based or functional assay.
Assay [2] deals with human CD40 extracellular domain (recombinant) (human) (UniProt P25942). The assay can be described thus: SPR, Biacore 8K; antibody on CM5 chip, hCD40 at various concentrations.
Chain of human CD40 extracellular domain (recombinant) (human) (P25942 21-193): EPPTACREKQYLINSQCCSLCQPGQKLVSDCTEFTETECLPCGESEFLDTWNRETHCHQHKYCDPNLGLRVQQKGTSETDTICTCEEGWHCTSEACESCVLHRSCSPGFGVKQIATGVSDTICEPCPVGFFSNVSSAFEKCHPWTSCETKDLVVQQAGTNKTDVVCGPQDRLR
Assay [3] addresses Rhesus monkey CD40 extracellular domain (recombinant) (Rhesus monkey) (UniProt F6SNI1). The assay can be described thus: ELISA; CD40 extracellular domain coated 0.1 µg/well, antibody titrated from 10 µg/mL 1:3, anti-human IgG-HRP.
For assay [4], the target named is human CD40 extracellular domain (recombinant) (human) (UniProt P25942). The description is as above.
Assay [5] has the same target. The assay can be described thus: ELISA, plate coated with recombinant human CD40 extracellular domain, antibody in serial dilution, anti-human IgG-HRP, OD450.
Assay [6] concerns the target Rhesus monkey CD40 extracellular domain (recombinant) (Rhesus monkey) (UniProt F6SNI1). Briefly: ELISA, plate coated with recombinant rhesus monkey CD40 extracellular domain, antibody in serial dilution, anti-human IgG-HRP, OD450.

Chain of Rhesus monkey CD40 extracellular domain (recombinant) (Rhesus monkey) (F6SNI1 entry or part of it): as the sequence (P25942 21-193) above, with G43S, H56R, W89L, T92M, A95S, L101P, S106L, H142R, L172Q counted along it
Chain of human CD40 on cells (P25942 21-277 limits assumed): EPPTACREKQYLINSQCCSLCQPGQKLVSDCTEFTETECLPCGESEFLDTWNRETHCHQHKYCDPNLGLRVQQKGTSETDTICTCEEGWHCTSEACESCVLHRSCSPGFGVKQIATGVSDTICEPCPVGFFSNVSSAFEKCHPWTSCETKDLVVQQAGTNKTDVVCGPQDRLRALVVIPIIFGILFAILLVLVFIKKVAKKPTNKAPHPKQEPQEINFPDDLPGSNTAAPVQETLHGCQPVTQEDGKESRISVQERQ
T1 sequence (P25942 21-193): as the sequence (P25942 21-193) above

B1: D11 (antibody, IgG4, V domains shown)
VH: QVQLVQSGAEVKKPGASVKVSCKASVYSFTGYTVNWVRQAPGQRLEWMGLINPYNGGTTYNQKFKGRVTLTIDKSASTAYMELSSLRSEDTAVYYCASSYYSNPYAMDYWGQGTLVTVSS
VL: EIVMTQSPATLSVSPGERATLSCKASQNVHTAVAWYQQKPGQAPRLLIYLASDRRTGIPARFSGSGSGTEFTLTISSLQSEDFAVYYCLQHWNYPLTFGQGTKVEIK
notes: Humanized form of D1; recombined with human IgG constant regions (preferably IgG4 heavy chain and kappa light chain); also called humanized anti-CD40 antibody D11
For B1, the binding result in assay [1] is recorded as “binds”.

B2: ASKP1240 (antibody, INN chains, looked up, V domains shown)
VH: QLQLQESGPGLLKPSETLSLTCTVSGGSISSPGYYGGWIRQPPGKGLEWIGSIYKSGSTYHNPSLKSRVTISVDTSKNQFSLKLSSVTAADTAVYYCTRPVVRYFGWFDPWGQGTLVTVSS
VL: AIQLTQSPSSLSASVGDRVTITCRASQGISSALAWYQQKPGKAPKLLIYDASNLESGVPSRFSGSGSGTDFTLTISSLQPEDFATYYCQQFNSYPTFGQGTKVEIK
modifications: IgG4
B2: in the assay with human CD40 on cells, the IC50, HEK-Blue CD40L NF-κB activation assay (SEAP) came out at 0.0134 µg/mL and the IC50, HEK-Blue CD40L NF-κB activation assay (SEAP), Fc-3*G4S-CD40L stimulus is 0.0111 µg/mL. Moreover, in assay [2], the Kd was found to be 2.07 nM, the koff worked out at 0.000617 s⁻¹ and the association rate constant (kon) was 298000 M⁻¹ s⁻¹. Moreover, the EC50 in assay [3] came to 0.181 µg/mL. Moreover, in assay [4], the EC50 was 0.211 µg/mL. The EC50 (read off the curve) in assay [5] turned out to be 0.1 µg/mL. Also, the EC50 (read off the curve) in assay [6] worked out at 0.1 µg/mL.

The record behind these values is patent publication US20240343817A1 (STAIDSON BEIJING BIOPHARMACEUTICALS, published 2024).
